Data on seven molecules can be found in patent publication US20080255035A1, “SPARC AND METHODS OF USE THEREOF” (Abraxis BioScience, Inc., priority 2007, published 2008).

Series [1] concerns Breast Cancer (MDA-MB-231). The series can be described thus: Breast cancer xenograft, SPARC / Avastin / Abraxane. The settings on record: for tumor growth, addition to Abraxane compared to the other arms: breast cancer cells. It is filed as in vivo, athymic nude mice. Here is the method:
(§1) Human breast cancer (FIGS. 7 and 8) and colon cancer cells (FIGS. 9 and 10) were grown in athymic nude mice as xenografts as in EXAMPLES 12 and 13. There were 5 mice in each treatment group. Tumors were treated when they reached 200 mm^3. […] Both wild type (“BIO1”) and Q3 mutant SPARC (“BIO2”) were evaluated. The animals were monitored for survival and xenograft growth as measures of efficacy and body weight change as a measure of toxicity.

The next series relates to Colon Cancer (HT29). The series is described as follows: Colon cancer xenograft, SPARC / Avastin / Abraxane. The following applies: for tumor growth, single agent therapy versus saline control / tumor growth, addition to Abraxane compared to Abraxane alone: colon cancer cells. It is filed as in vivo, athymic nude mice. As to the method:
as §1

For series [2], the system named is HT29 colon cancer xenograft. The series can be described thus: s.c. human HT29 colon cancer xenograft model, 5-FU with BIO1. It is filed as in vivo, nude mice. Here is the method:
To further explore the chemotherapy sensitizing activity of SPARC, the athymic mouse tumor xenograft system was used to assess the sensitization of HT 29 human colocancer cells to 5-flurouracil (“5-FU”).
The cancer cells were implanted subcutaneously bilaterally in athymic mice. The mice were treated with saline or 25 mg/kg of 5-FU (see Table 4). Those animals that received SPARC were treated with wild type polypeptide (SEQ ID NO:1) at a dose of 4 mg/kg, 6 mg/kg or 8 mg/kg (see Table 4). The animals were monitored for survival and xenograft growth as measures of efficacy and body weight change as a measure of toxicity.
For orientation: A xenograft is tissue or cells of one species grown in another, often human tumour cells in immunodeficient mice.

In series [3] the test system is HUVEC. The series is described as follows: Transport of paclitaxel across EC monolayers on transwell (HUVEC). It counts as cell-based, human. The settings on record: cell type not specified. As to the method:
A series of experiments were performed to evaluate binding and transport of paclitaxel by human umbilical vein endothelial cells (HUVEC) and human lung microvessel endothelial cells (HLMVEC) for ABX and TAX. Fluorescent paclitaxel (FP) was used as a probe and fluorescent ABX and TAX were formulated with FP to probe the binding and transport of paclitaxel across EC monolayers grown on a transwell apparatus.

For series [4], the system named is HUVEC. The series can be described thus: In vitro angiogenesis assay (TSC CellWorks Angiokit). It is filed as cell-based, human. The settings on record: 12 days in culture. Here is the method:
In this system, human umbilical vein endothelial cells (“HUVEC”) are co-cultured with other human cells (fibroblast) in collagen matrix. HUVEC cells initially form small islands within the culture matrix. HUVEC differentiate, proliferate and enter migratory phase during which they move through the matrix and form threadlike tubule structures (9-11 days). These gradually join up and form a network which resemble the capillary bed.
HUVEC cells grown in a three dimensional matrix were treated with various concentration of wild type SPARC polypeptide (SEQ ID NO: 1) or the Q3 mutant SPARC polypeptide (SEQ ID NO: 3). Capillary microtubules were visualized using immunostaining for CD31 after 12 days in culture. FIG. 6 depicts SPARC's concentration dependent effect on neoangiogensis showing characteristic examples of the capillary microtubular density in the absence of SPARC (0 μg/ml), wild type or Q3 SPARC at 10 μg/ml, and wild type or Q3 SPARC at 100 μg/ml.

Take “Avastin: angiogenesis inhibitor [reference compound]”: the “Tumor growth inhibition (TGI) relative to Abraxane alone” value was 16% in series [1] (MDA-MB-231, SPARC 150 μg/kg 2×/week, Avastin 4 mg/kg twice per week, Abraxane 15 mg/kg every fourth day ×3) and <0% in the series with Colon Cancer (HT29) (HT29, SPARC 150 μg/kg 2×/week, Avastin 4 mg/kg twice per week, Abraxane 15 mg/kg every fourth day ×3). The “tumor growth, single agent therapy versus saline control” value in the series on Colon Cancer (HT29) is given as “no better than the saline control treatments”.
As for `O=c1[nH]cc(F)c(=O)[nH]1` [5-FU, 5-flurouracil], the “% BWLmax” value in series [2] (5-FU 25 mg/kg IP) is listed as −5.8%. Also, the “TGI (%)” value in series [2] (5-FU 25 mg/kg IP, post-treatment day 25) stood at 79.8%.
As to beta-methyl cyclodextrin [BMC], the “effect on transport of paclitaxel from ABX across endothelial monolayers” value with HUVEC [3] is listed as “inhibited”.
Same read-out and setting: as for `CCN1C(=O)C=CC1=O` [NEM], the entry is “inhibited”.

B1: BIO2: Q3 mutant SPARC (SEQ ID NO: 3), deletion of the third glutamine in mature human SPARC (protein, listed as Homo sapiens)
chain: APQEALPDETEVVEETVAEVTEVSVGANPVQVEVGEFDDGAEETEEEVVAENPCQNHHCKHGKVCELDENNTPMCVCQDPTSCPAPIGEFEKVCSNDNKTFDSSCHFFATKCTLEGTKKGHKLHLDYIGPCKYIPPCLDSELTEFPLRMRDWLKNVLVTLYERDEDNNLLTEKQKLRVKKIHENEKRLEAGDHPVELLARDFEKNYNMYIFPVHWQFGQLDQHPIDGYLSHTELAPLRAPLIPMEHCTTRFFETCDLDNDKYIALDEWAGCFGIKQKDIDKDLVI
For B1, the “tumor growth, addition to Abraxane compared to the other arms” value in series [1] is “similar, though blunted, results”. Moreover, the “tumor growth, addition to Abraxane compared to Abraxane alone” value with Colon Cancer (HT29) is given as “fails to slow tumor growth beyond that achieved with Abraxane®”.

B2: BIO1: wild type SPARC polypeptide (SEQ ID NO: 1) (protein, listed as Homo sapiens)
chain: APQQEALPDETEVVEETVAEVTEVSVGANPVQVEVGEFDDGAEETEEEVVAENPCQNHHCKHGKVCELDENNTPMCVCQDPTSCPAPIGEFEKVCSNDNKTFDSSCHFFATKCTLEGTKKGHKLHLDYIGPCKYIPPCLDSELTEFPLRMRDWLKNVLVTLYERDEDNNLLTEKQKLRVKKIHENEKRLEAGDHPVELLARDFEKNYNMYIFPVHWQFGQLDQHPIDGYLSHTELAPLRAPLIPMEHCTTRFFETCDLDNDKYIALDEWAGCFGIKQKDIDKDLVI
B2: the “sensitization of the cancer cells to 5-FU” value in series [2] (any of the SPARC concentrations used (4, 6, 8 mg/kg)) is recorded as “failed to sensitize”.

B3: SPARC: Secreted Protein, Acidic, Rich in Cysteines, also known as osteonectin; wild type or Q3 not told apart at the place (protein)
chain: APQQEALPDETEVVEETVAEVTEVSVGANPVQVEVGEFDDGAEETEEEVVAENPCQNHHCKHGKVCELDENNTPMCVCQDPTSCPAPIGEFEKVCSNDNKTFDSSCHFFATKCTLEGTKKGHKLHLDYIGPCKYIPPCLDSELTEFPLRMRDWLKNVLVTLYERDEDNNLLTEKQKLRVKKIHENEKRLEAGDHPVELLARDFEKNYNMYIFPVHWQFGQLDQHPIDGYLSHTELAPLRAPLIPMEHCTTRFFETCDLDNDKYIALDEWAGCFGIKQKDIDKDLVI
With B3, the “tumor growth, addition to Abraxane compared to the other arms” value in series [1] is given as “marked decreases in tumor growth”. For the same molecule, the “angiogenic activity (capillary microtubule density, CD31)” value in the series with HUVEC [4] (10 μg/ml) is on record as “proangiogenic”. Also, the “angiogenic activity (capillary microtubule density, CD31)” value with HUVEC [4] (100 μg/ml) is “inhibits angiogenesis”. In the series on Colon Cancer (HT29), the “tumor growth, addition to Abraxane compared to Abraxane alone” value was “further decreases in tumor growth” and the “tumor growth, single agent therapy versus saline control” value is “no better than the saline control treatments”.
